Data from PMC3338918.

Columns and labels:
[1] = molecular target: VEGF Trap (aflibercept) (human); assay: KinExA solution equilibrium assay; KinExA 3000, room temperature (25°C); VEGF Trap (1–50 pM) equilibrated 10–96 h with varying ligand; unbound inhibitor captured on VEGF-A165-coupled Azlactone beads and detected with Cy5 anti-human IgG; one-site homogeneous binding model
[2] = molecular target: human VEGFR1-hFc (human) (UniProt P17948)
[3] = molecular target: VEGF Trap (aflibercept) (human); assay: SPR; Biacore 3000, CM5 chip, 25°C, HBS-T (10 mM Hepes, 150 mM NaCl, 3.4 mM EDTA, 0.05% polysorbate 20, pH 7.4); VEGF Trap or receptor-Fc captured at low density on amine-coupled Protein A, ligands injected (1.0–0.062 nM VEGF-A, 2.5–0.156 nM VEGF-B(10-108), 5.0–0.078 nM PlGF); kd of VEGF-A ligands by the 'fixed kd' procedure on a Biacore 2000 (~2–3 h); KD = kd/ka

VEGF Trap (aflibercept) (human), sequence (chain, INN chains, looked up, as listed by the source): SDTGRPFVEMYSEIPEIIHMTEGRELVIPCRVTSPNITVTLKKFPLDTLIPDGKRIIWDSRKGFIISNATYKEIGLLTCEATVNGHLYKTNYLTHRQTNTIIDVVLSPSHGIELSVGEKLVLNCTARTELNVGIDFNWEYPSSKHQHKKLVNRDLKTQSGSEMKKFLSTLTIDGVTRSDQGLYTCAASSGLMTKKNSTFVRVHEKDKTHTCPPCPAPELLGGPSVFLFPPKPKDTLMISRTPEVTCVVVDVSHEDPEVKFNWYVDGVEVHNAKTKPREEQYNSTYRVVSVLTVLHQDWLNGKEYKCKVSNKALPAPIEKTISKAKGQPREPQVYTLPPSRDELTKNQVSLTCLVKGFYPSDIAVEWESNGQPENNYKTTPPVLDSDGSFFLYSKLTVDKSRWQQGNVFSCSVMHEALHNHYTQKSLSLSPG
human VEGFR1-hFc (human), sequence (P17948 27-758): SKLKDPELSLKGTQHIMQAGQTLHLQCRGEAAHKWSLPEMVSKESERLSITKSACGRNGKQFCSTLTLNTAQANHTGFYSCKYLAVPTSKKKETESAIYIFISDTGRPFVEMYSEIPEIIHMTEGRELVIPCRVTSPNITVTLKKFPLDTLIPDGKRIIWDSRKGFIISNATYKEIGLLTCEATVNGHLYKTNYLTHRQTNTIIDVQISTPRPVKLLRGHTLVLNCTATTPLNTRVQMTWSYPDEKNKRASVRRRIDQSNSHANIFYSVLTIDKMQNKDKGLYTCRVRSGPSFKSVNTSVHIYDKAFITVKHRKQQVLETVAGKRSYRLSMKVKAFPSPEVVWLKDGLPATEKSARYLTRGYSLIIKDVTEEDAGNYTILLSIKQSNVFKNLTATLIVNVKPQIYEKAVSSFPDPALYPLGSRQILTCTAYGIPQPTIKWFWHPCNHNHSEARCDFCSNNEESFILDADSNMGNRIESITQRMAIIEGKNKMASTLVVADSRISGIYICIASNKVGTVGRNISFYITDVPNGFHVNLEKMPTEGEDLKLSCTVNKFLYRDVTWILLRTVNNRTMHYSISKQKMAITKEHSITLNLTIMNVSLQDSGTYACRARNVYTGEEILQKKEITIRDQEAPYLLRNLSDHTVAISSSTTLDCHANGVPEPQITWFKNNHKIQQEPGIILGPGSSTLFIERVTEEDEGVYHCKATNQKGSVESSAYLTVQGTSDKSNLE

Binder	Kd [1]	EC50 of luciferase activation in HEK293/VEGFR1 cells (dose response, 0.022 pM to 4.0 nM) [2]	Kd [3]	koff [3]	kon [3]
human PlGF-2 (ligand) LPAVPPQQWALSAGNGSSEVEVVPFQEVWGRSYCRALERLVDVVSEYPSEVEHMFSPSCVSLLRCTGCCGDENLHCVPVETANVTMQLLKIRSGDRPSYVELTFSQHVRCECRPLREKMKPERRRPKGRGKRRREKQRPTDCHLCGDAVPRR	20.7 pM	29 pM	38.9 pM	6.81e-05 s⁻¹	1.75e+06 M⁻¹ s⁻¹
murine PlGF-2 (ligand) VHSQGALSAGNNSTEVEVVPFNEVWGRSYCRPMEKLVYILDEYPDEVSHIFSPSCVLLSRCSGCCGDEGLHCVPIKTANITMQILKIPPNRDPHFYVEMTFSQDVLCECRPILETTKAERRKTKGKRKRSRNSQTEEPHP		10 pM	3.32 pM		
